Earlier results in publication PMC1991591.

Molecular target: Fus3 (Saccharomyces cerevisiae) (UniProt P16892)
Sequence of UniProt P16892 (P16892 whole entry): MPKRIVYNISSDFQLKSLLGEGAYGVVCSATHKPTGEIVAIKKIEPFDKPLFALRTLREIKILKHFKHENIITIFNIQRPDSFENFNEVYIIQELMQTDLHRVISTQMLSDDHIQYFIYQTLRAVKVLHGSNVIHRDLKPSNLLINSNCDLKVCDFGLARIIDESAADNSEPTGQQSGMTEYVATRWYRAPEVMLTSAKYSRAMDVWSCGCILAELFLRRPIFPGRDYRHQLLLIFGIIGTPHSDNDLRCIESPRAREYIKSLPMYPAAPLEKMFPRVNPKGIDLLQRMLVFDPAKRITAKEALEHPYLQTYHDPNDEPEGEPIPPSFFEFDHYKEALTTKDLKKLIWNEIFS

In the case of Ste5 (from UniProt P32917), the Kd is given as 1 µM.
